Measured values published in paper PMC4368098.

Assays:
[1] = target: DICER;ARGONAUTE2 (AGO2) (human;human) (UniProt Q9UPY3+Q9UKV8); assay: competition (fluorogenic siRNA processing); conditions: 80 nM BoPsi664, 30 nM each enzyme; Assay Buffer with 1 mM free Mg2+ (full composition not in the material), 37 C; indirect read-out by competitive inhibition of fluorogenic siRNA processing, no …
[2] = target: DICER (human) (UniProt Q9UPY3)

Row | Substance | IC50 [1] | K d,app from a Morrison-equation fit of enzymatic activity: DICER (25 nM) titrated with AGO2, fluorogenic DICER substrate BoGD664 (250 nM), 37°C [2] | K d,app from a Morrison-equation fit of enzymatic activity: DICER (25 nM) titrated with AGO2, fluorogenic DICER substrate BoPD664 (250 nM), 37°C [2] | molar ratio AGO2:DICER at which enzymatic activity on DICER substrates stops rising (titration of DICER, 25 nM, with AGO2) (molar ratio AGO2:DICER) [2]
1 | AllStars Negative Control siRNA | 209 nM | – | – | –
2 | ARGONAUTE2 (from UniProt Q9UKV8 1-859) (enzyme) | – | 2.2 nM | 0.54 nM | 1
